# Data as given in publication PMC5622040 (Nature Communications, 2017).
# B1: Syrian hamster PrP23-144 (domain or fragment)
# chain: KKRPKPGGWNTGGSRYPGQGSPGGNRYPPQGGGTWGQPHGGGWGQPHGGGWGQPHGGGWGQPHGGGWGQGGGTHNQWNKPSKPKTNMKHMAGAAAAGAVVGGLGGYMLGSAMSRPMMHFGND
# Target: the molecule itself
# Assay: solid-state NMR of amyloid fibrils
protein,measurement,value
B1,binding result,binds
